According to patent US20220411487A1 (Regeneron, published 2022):
Substitutions are numbered along the chain they refer to. Numbers in names are those of the source.

T1: full length human TMPRSS6 on HEK293 cells (HEK293/hTMPRSS6) (human, UniProt Q8IU80 10-811)
T1 sequence (looked up): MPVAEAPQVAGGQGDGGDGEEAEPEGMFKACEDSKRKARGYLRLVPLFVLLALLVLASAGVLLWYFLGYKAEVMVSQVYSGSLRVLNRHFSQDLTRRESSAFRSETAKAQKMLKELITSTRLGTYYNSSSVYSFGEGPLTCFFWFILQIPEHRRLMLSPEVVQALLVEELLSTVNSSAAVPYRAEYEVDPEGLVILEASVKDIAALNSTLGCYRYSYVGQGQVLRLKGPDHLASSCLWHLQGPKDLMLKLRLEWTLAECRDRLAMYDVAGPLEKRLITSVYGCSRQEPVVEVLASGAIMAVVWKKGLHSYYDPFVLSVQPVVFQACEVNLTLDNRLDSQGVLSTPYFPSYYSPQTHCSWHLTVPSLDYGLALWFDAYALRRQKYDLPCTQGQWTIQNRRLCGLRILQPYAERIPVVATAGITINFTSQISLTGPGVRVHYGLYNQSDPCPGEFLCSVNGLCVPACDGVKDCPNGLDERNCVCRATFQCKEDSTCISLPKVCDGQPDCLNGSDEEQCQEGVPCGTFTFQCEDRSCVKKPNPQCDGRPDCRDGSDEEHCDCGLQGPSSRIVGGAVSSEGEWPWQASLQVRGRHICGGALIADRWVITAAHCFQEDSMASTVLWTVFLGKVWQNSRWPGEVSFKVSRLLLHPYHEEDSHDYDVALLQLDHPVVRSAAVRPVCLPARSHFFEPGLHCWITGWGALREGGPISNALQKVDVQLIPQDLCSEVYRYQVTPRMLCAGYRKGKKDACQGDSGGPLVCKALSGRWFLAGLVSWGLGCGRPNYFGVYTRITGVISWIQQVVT

T2: full length cynomolgous monkey TMPRSS6 on HEK293 cells (HEK293/mfTMPRSS6) (cynomolgous monkey/Macaca fascicularis, UniProt Q8IU80 10-811 (human entry))
T2 chain: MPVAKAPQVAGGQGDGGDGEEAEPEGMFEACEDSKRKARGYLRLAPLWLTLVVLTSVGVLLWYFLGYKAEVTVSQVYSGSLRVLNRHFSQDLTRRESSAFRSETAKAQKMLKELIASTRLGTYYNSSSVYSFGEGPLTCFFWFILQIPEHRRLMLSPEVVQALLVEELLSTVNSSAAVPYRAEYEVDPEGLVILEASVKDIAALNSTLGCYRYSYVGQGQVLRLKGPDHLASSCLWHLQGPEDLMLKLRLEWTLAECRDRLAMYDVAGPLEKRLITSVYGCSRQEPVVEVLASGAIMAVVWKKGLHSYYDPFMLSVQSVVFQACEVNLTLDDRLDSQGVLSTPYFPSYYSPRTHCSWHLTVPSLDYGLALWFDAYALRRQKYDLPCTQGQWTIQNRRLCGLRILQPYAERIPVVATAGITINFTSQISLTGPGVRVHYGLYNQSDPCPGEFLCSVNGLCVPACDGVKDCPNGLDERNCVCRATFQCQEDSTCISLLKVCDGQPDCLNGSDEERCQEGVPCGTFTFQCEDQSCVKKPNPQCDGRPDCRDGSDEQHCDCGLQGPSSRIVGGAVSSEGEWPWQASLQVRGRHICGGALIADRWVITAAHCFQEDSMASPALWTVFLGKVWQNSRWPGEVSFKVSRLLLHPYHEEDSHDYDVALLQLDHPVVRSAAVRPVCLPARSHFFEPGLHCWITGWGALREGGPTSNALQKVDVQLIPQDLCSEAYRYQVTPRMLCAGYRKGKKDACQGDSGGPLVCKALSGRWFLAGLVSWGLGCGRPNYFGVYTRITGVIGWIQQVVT

T3: full length mouse TMPRSS6 on HEK293 cells (HEK293/mTMPRSS6) (mouse, UniProt Q9DBI0 1-811)
T3 construct: line sorted for high expression
T3 sequence: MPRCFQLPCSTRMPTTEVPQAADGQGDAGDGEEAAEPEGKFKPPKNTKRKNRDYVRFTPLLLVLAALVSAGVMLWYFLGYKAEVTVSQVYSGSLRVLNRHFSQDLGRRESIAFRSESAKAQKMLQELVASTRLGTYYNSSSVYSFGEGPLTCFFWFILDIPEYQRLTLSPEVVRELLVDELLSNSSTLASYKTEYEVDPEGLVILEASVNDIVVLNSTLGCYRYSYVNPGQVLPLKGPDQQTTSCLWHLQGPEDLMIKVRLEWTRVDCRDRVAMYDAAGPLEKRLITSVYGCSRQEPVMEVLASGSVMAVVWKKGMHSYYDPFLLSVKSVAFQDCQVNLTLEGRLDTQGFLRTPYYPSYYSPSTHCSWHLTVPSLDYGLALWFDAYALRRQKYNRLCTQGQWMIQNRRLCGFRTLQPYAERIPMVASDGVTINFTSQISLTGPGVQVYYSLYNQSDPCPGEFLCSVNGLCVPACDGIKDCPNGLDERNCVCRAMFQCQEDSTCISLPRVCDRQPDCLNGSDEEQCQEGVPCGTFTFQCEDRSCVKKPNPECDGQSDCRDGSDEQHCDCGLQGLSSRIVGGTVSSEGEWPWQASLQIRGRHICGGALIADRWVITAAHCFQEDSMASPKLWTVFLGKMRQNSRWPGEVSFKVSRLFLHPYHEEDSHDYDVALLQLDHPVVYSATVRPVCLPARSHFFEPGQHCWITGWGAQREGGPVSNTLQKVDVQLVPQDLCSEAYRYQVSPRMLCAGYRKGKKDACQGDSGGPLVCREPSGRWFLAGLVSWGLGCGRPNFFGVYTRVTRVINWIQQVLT

B1: REGN7974 (antibody, human IgG4 S228P, kappa, V domains shown)
VH: EVQLVESGGGLVQPGRSLRLSCIASGFNFGDYGMSWVRQAPGKGLEWVGFIRSKAYGGTTEYAASVKGRFTISRDDSKSIAYLQMNSLKTEDAAMYYCSRDYYDILTGYYGDYWGQGTLVTVSS
VL: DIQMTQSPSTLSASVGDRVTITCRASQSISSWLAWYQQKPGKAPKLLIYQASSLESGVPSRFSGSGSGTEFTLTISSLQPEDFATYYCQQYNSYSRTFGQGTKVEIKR
notes: fully human; human IgG4 Fc with hinge S108P; also called mAb41422
B2: REGN7977 (antibody, V domains shown)
VH: EVQLVESGGGLVKPGGSLRVSCAASGVTFSNVWMSWVRQVPGKGLEWVGRIKSKTDGGTTDYAAPVKGRFTISKDDSKNTLFLQMNSLKTEDTAVYYCTTETGDFWSGYYPRFQHWGQGTLVTVSS
VL: DIQMTQSPSSLSASVGDRVTITCRASQYISTYLNWYQQKPGKAPSLLIYAASSLQSGVPSRFSGSGSGTDFTLTISSLQPEDFASYSCQQSYSTPPYTFGQGTKLEIKR
notes: fully human; human IgG4 Fc with hinge S108P; also called mAb41465
B3: REGN7999 (antibody, human IgG4 S228P, kappa, V domains shown)
VH: EVQLVESGGGLVQPGGSLRLSCAASGFTFSSYAMTWVRQAPGKGLEWVSAISGSDTSTYYADSVKGRFTISRDNSKNTLFLQMNSLRAEDTAVYYCAKHQDYDFSYYYSAMDVWGQGTTVTVSS
VL: DIQMTQSPSSLSASVGDRVIITCRASQDFNSWLAWYQQKPGKAPKLLIYAASSLQSGVPSRFSGSGSGTDFTLTISSLQPEDFATYYCQQTDSFPFTFGPGTKVDIKR
notes: fully human; human IgG4 Fc with hinge S108P; also called mAb41450
B4: REGN8023 (antibody, human IgG4 S228P, kappa, V domains shown)
VH: EVQLVESGGGLVKPGGSLRISCAASGFIFVDYAMHWVRQAPGKGLEWVSGISWNSGSIGYADSVKGRFTISRDNAKKSLYLQMSGLRPEDTALYYCVKSGFYYVRSYFDNWGQGTLVTVSS
VL: DIVMTQSPLSLPVTPGEPASISCRSSQSLLDSDDGNTYLDWYLRKPGQSPQLLIYTLSYRASGVPDRFSGSGSGTDFTLKISRVEADDVGVYYCMQRIEFPLTFGGGTKVEIKR
notes: fully human; human IgG4 Fc with hinge S108P; also called mAb37699
B5: REGN7969 (antibody, human IgG4 S228P, kappa, V domains shown)
VH: QVQLVESGGGVVQPGRSLRLSCAASGFTFNNYGMHWVRQAPGKGLEWVAIISYDGSNEYYSDSVKGRFTISRDNSKNTLYLQMNSLRAEDTAVYYCARDQDYGGNLFHYWGQGTLVTVSS
VL: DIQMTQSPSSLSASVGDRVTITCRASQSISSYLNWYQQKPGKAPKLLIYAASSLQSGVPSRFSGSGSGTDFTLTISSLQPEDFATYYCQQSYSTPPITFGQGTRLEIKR
notes: fully human; human IgG4 Fc with hinge S108P; also called mAb37746
B6: REGN7971 (antibody, human IgG4 S228P, kappa, V domains shown)
VH: B5 VH with N30S, N31T, E58D, S61L, S85N, R98K, D101G, H108A, Y109S
VL: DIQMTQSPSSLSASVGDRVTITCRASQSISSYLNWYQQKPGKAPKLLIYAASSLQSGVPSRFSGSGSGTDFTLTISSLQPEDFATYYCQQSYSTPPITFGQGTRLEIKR
notes: fully human; human IgG4 Fc with hinge S108P; also called mAb37763

Target: T1, full length human TMPRSS6 on HEK293 …
Experiment: cell-based or functional assay

Binder | % inhibition, HEK293 bioassay, overnight pre-incubation 37 C [%] | IC50, HEK293 bioassay, overnight pre-incubation 37 C [nM]
B1 | 86 | 2.6
B2 | 87 | 1.7
B3 | 89 | 2.1
B4 | 90 | 1.1
B5 | 88 | 1.2
B6 | 90 | 1.4

Target: T2, full length cynomolgous monkey TMPRSS6 …
Experiment: cell-based or functional assay

Binder | % inhibition, HEK293 bioassay, overnight pre-incubation 37 C [%] | IC50, HEK293 bioassay, overnight pre-incubation 37 C [nM]
B1 | 31 | > 10
B2 | 81 | > 10
B3 | 91 | 21
B4 | 91 | 2.8
B5 | 89 | 13
B6 | 89 | 6

Target: T2, full length cynomolgous monkey TMPRSS6 …
Experiment: flow cytometry, HEK293 cells expressing target
Procedure: (§1) To assess the binding of anti-TMPRSS6 antibodies of the present disclosure to the receptor expressed on the cell surface, antibodies (including an IgG subclass control) were serially diluted in assay buffer (PBS without Ca⁺⁺ and Mg⁺⁺ containing 2% FBS) from 375 nM to 22.9 pM (plus a sample containing assay buffer alone without test molecule) and incubated with 0.5×10⁶ cells/well at 4° C. for 30 minutes in assay buffer. […] Cells were fixed using BD CytoFix™ (Becton Dickinson, #554655) and analyzed on either the IQue® or IQue®Plus Flow Cytometers (Intellicyt®). Unstained and secondary antibody alone controls were also tested for all cell lines. The results were analyzed using ForeCyt® (IntelliCyt®) software to determine the geometric means of fluorescence for viable cells and binding ratio was calculated by normalizing the geometric mean value of the test condition by the geometric mean value of the corresponding unstained cells.

Binder | EC50 [nM] | Max. Fold Binding
B1 | 3.6 | 50 fold over unstained control
B2 | 2.4 | 78 fold over unstained control
B3 | 2 | 79 fold over unstained control
B4 | 0.94 | 52 fold over unstained control
B5 | 1.2 | 50 fold over unstained control
B6 | 1.5 | 75 fold over unstained control

Target: T3, full length mouse TMPRSS6 on HEK293 …
Experiment: flow cytometry, HEK293 cells expressing target
Procedure: as §1

Binder | Max. Fold Binding | EC50 [nM]
B1 | 1 fold over unstained control | 
B2 | 125 fold over unstained control | 9.1
B3 | 421 fold over unstained control | 4.5
B4 | 296 fold over unstained control | 0.84
B5 | 1 fold over unstained control | 
B6 | 1 fold over unstained control | 
